Reference: article PMC5009064 (Cell Reports, 2016)

Experiments:
HOIP-PUB domain [1] = biological target: T1, HOIP-PUB domain (Homo sapiens, UniProt Q96EP0); assay: ITC of HOIP-PUB domain titrated into peptide or protein; type: binding; conditions: 398 μM HOIP-PUB domain titrated into CYLD-USP domain at 40 μM; 293 K; 25 mM HEPES (pH 7.5), 150 mM NaCl, 0.5 mM TCEP
T1 sequence (Q96EP0 71-142 limits assumed): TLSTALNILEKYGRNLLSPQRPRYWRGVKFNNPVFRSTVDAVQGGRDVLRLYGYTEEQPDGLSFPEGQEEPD
Method: (B) ITC characterization of the interactions between (A) the HOIP-PUB domain (597 μM) and a peptide derived from the PIM motif (58 μM) of OTULIN and (B) the HOIP-PUB domain (398 μM) and the CYLD-USP domain (40 μM). For each titration, the raw data and normalized integrated heats are reported. (C) HEK293 cells were transfected with different combinations of CYLD, SPATA2, and OTULIN together with FLAG-HOIP. Protein complexes were subsequently purified using anti-FLAG beads and analyzed by western blotting. (D) SPATA2 expression was suppressed in FLAG-HOIP transfected HEK293 cells using siRNA. FLAG-HOIP was subsequently immunoprecipitated and tested for associated proteins by western blot analysis. (E) A549 cells were transfected with control or SPATA2 siRNA. After 72 hr, cells were subjected to TNFR1-SC purification and analyzed by western blotting. […] They name protein/peptide pairs, not small molecules. / Panel B, Kd: the lowered letter after K is small; read as d.
Samples were subsequently analyzed by western blotting. (B) HOIP-deficient A549 cells were reconstituted with HOIP-WT or HOIP-N102A. […] Samples were analyzed by western blotting. […] Following anti-GFP IP, SPATA association with HOIP and CYLD was evaluated by western blot analysis. […] Bound GST-containing protein was subsequently detected by HRP immunofluorescence, and the signal of both membranes was overlaid. […]

HOIP-PUB domain [2] = biological target: T2, HOIP-PUB domain (UniProt Q96EP0 71-142); assay: ITC
T2 chain: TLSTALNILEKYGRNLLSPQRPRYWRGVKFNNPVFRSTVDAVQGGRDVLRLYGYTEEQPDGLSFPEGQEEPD

HOIP-PUB domain [3] = biological target: T3, HOIP-PUB domain (UniProt Q96EP0 71-142); assay: ITC; 293 K, ITC-200; 25 mM HEPES pH 7.5, 150 mM NaCl, 0.5 mM TCEP; 20 injections of 2 ul HOIP-PUB domain into peptide or domain in the cell; 1:1 binding model; conditions: both partners purified
T3 construct: PUB domain of HOIP, as used for ITC; also called PUB domain of HOIP
T3 sequence (looked up): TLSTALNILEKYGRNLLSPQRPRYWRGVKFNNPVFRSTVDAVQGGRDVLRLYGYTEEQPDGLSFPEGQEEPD

B1: CYLD-USP: USP domain of CYLD, protein domain titrated by ITC (protein)
chain: KGIQGHYNSCYLDSTLFCLFAFSSVLDTVLLRPKEKNDVEYYSETQELLRTEIVNPLRIYGYVCATKIMKLRKILEKVEAASGFTSEEKDPEEFLNILFHHILRVEPLLKIRSAGQKVQDCYFYQIFMEKNEKVGVPTIQQLLEWSFINSNLKFAEAPSCLIIQMPRFGKDFKLFKKIFPSLELNITDLLEDTPRQCRICGGLAMYECRECYDDPDISAGKIKQFCKTCNTQVHLHPKRLNHKYNPVSLPKDLPDWDWRHGCIPCQNMELFAVLCIETSHYVAFVKYGKDDSAWLFFDSMADRDGGQNGFNIPQVTPCPEVGEYLKMSLEDLHSLDSRRIQGCARRLLCDAYMCMYQSP
With B1 as the molecule, how does the “direct interaction by ITC” value (HOIP-PUB domain [1]) read?
Its value is “could not detect a direct interaction”.

Which Kd (HOIP-PUB domain [2]) does the source give for AEHEEDMYRA [peptide derived from the PIM motif of OTULIN] here?
Its Kd is 3200 nM.

B2: peptide derived from the C-terminal region of SPATA2 (peptide)
peptide: RGTYFSTQDDVDLYTDSEPR
notes: SPATA2 PIM peptide; also called SPATA2 peptide; PIM of SPATA2
With B2 as the molecule, how does the Kd (HOIP-PUB domain [3]) read?
The Kd was 900 nM.
